Laboratory results as given in publication PMC4916508, “Structural insights of a hormone sensitive lipase homologue Est22” (Scientific Reports, 2016).

Columns and labels:
[1] = biological target: Est22 (wild type) (bacterial, deep-sea sediment metagenomic library); assay: SEC-MALS; 20 ul of 1 mg/ml Est22 on a wtc030s5 column (Wyatt), 20 mM Tris-HCl, 100 mM NaCl, pH 7.4
[2] = biological target: Est22 (wild type) (bacterial, deep-sea sediment metagenomic library); assay: SEC; gel filtration profiles of wild type and mutants, Superdex 200 16/600 (panel C); column of panel E not given
[3] = biological target: Est22 S188A (bacterial, deep-sea sediment metagenomic library); assay: as above
[4] = biological target: Est22 S188A/D287A (bacterial, deep-sea sediment metagenomic library); assay: as above
[5] = biological target: Est22 S188A/H317A (bacterial, deep-sea sediment metagenomic library); assay: as above
[6] = biological target: the molecule itself; assay: as above
purified protein = substrate: CC(=O)Oc1ccc([N+](=O)[O-])cc1; assay: purified protein; type: biochemical, uncultured bacterium; details: 100 mM Tris-HCl, pH 7.5, 40 °C

Est22 (wild type) (enzyme)
stoichiometry N [1]: 2
stoichiometry N [2]: 2

Est22 S188A (enzyme)
stoichiometry N [3]: 2

Est22 S188A/D287A (enzyme)
stoichiometry N [4]: 2

Est22 S188A/H317A (enzyme)
stoichiometry N [5]: 2

B1: Est22 S170A (enzyme)
chain: MGSSHHHHHHHSSGLVPRGSHMTNKIAEDPRIDPRIKAIFSGMDLGGGGDVESREAMLEAASSEEATAVRDGLRVFLDACDNEEIAPSAGLKIEDYEFTSEPDGNIAKIQYIRPDSTDKLPCVYYIHGGGMQSLSCYYGNYRAWGKIIASNGVAVAMVEFRNALVPSALPEVAPYPAGLNDCVSGVKWVAAHADELGIDASRIIIAGESGGGNLTLAAGLRLKQEGSQDLIQGLYALCPYIAGSWPSEDSPSSTENNGILLDLHNNQGAMGYGIEAYEMRDPLAWPGFATEEDVSGLVPTFISVNECDPLRDEGINFYRLLLRAGVSAKCRQVMGTIHGTEIFPIACPDVSRDTAASIANFCKGG
stoichiometry N [6]: 2

B2: Est22 (uncultured bacterium) (protein)
chain: MTNKIAEDPRIDPRIKAIFSGMDLGGGGDVESREAMLEAASSEEATAVRDGLRVFLDACDNEEIAPSAGLKIEDYEFTSEPDGNIAKIQYIRPDSTDKLPCVYYIHGGGMQSLSCYYGNYRAWGKIIASNGVAVAMVEFRNALVPSALPEVAPYPAGLNDCVSGVKWVASHADELGIDASRIIIAGESGGGNLTLAAGLRLKQEGSQDLIQGLYALCPYIAGSWPSEDSPSSTENNGILLDLHNNQGAMGYGIEAYEMRDPLAWPGFATEEDVSGLVPTFISVNECDPLRDEGINFYRLLLRAGVSAKCRQVMGTIHGTEIFPIACPDVSRDTAASIANFCKGG
notes: full length 1-344 aa, N-terminal 6xHis tag (pET28b), E. coli Rosetta (DE3)
Km (purified protein): 489.9 µM
kcat (purified protein): 3160 s⁻¹
